Six substances from patent US20230056486 can be followed below.

Data set [1] concerns T1, (GR)10 dipeptide repeat peptide.
T1 sequence: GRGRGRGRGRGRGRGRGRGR

Data set [2] has as its system T2, Biotin-(PEG)4-(GR)10.
T2 sequence: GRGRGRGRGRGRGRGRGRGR

“And” between values parts separate entries of the source, which are not always exact repeats. Identical values can stand only once.

Immobilized TPCK-trypsin on agarose resin; ThermoFisher Cat #20230, sequence (P00760 24-246): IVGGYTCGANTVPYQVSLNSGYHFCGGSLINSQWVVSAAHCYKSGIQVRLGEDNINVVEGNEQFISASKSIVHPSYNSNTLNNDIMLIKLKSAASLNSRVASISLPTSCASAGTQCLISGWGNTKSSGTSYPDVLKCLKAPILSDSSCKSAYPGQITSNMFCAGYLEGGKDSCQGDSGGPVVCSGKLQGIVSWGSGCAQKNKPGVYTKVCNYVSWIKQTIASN

For the substance Factor Xa, in data set [1], the (GR)10 concentration left at 0 min (LC/MS; 50 µM start; TRIS buffer; TFA added before enzyme) was 33.1 µM and 31 µM; the (GR)10 concentration left at 5 min (LC/MS; 50 µM start; TRIS buffer) was 35 µM and 23.5 µM; the (GR)10 concentration left at 10 min (LC/MS; 50 µM start; TRIS buffer) was 19.4 µM and 13.6 µM.
On to “Immobilized TPCK-trypsin on agarose resin; ThermoFisher Cat #20230”, for which, in data set [1], the (GR)10 concentration left at 0 min (LC/MS; 50 µM start) is 68.4 µM and 32.7 µM; the (GR)10 concentration left at 10 min (LC/MS; 50 µM start) is 2.1 µM and 1.6 µM; the (GR)10 concentration left at 30 min (LC/MS; 50 µM start) was 0.6 µM and 0.9 µM; the (GR)10 concentration left at 120 min (LC/MS; 50 µM start) stood at 0.1 µM. Besides, in data set [1], the (GR)10 left in CSF; Commercial Trypsin-Immobilized-5 min reaction (LC/MS; 200 µM (GR)10 in human CSF) (normalized µM) was -0, the (GR)10 left in CSF; Commercial Trypsin-Immobilized-605 min reaction [as printed; 60 min meant] (LC/MS; 200 µM (GR)10 in human CSF) (normalized µM) is -0, the (GR)10 left; Commercial Trypsin-Immobilized-5 min reaction (LC/MS) was 0 µM and the (GR)10 left; Commercial Trypsin-immobilized-60 min reaction (LC/MS) was 0 µM. Moreover, in data set [1], the (GR)10 left; Commercial Trypsin-resin wash from 5 min reaction (LC/MS) turned out to be 0 µM, the (GR)10 left; Commercial Trypsin-resin wash from 60 min reaction (LC/MS) was 0 µM and the “digestion of (GR)10 to shorter GR repeats (LC/MS)” value is recorded as “Immobilized trypsin at 6.25 TAME Units digests (GR)10 to almost exclusively (GR)1 in 10 to 30 minutes”. In data set [2], the “digestion of biotin-(PEG)4-(GR)10 after 5 minutes, immobilized enzyme (LC/MS)” value (shortened to “digestion … immobilized enzyme (LC/MS)”) is “over 90% digestion of biotin-(PEG)4-(GR)10 after only 5 minutes of incubation time”.
Take Kallikrein 6 (neurosin), autoactivated: in data set [1], the (GR)10 concentration left at 0 min (LC/MS; 50 µM start; TFA added before enzyme) was 27.8 µM and 54.7 µM; the (GR)10 concentration left at 5 min (LC/MS; 50 µM start) is 42.2 µM and 57.5 µM; the (GR)10 concentration left at 10 min (LC/MS; 50 µM start) is 50.1 µM and 60.8 µM; the (GR)10 concentration left at 30 min (LC/MS; 50 µM start) was 57.8 µM and 65 µM. In addition, in data set [1], the (GR)10 concentration left at 60 min (LC/MS; 50 µM start) was 54.2 µM and 71.5 µM; the (GR)10 concentration left at 120 min (LC/MS; 50 µM start) is 54.3 µM and 57.4 µM.
As to elastase, in data set [1], the (GR)10 concentration left at 0 min (LC/MS; 50 µM start; TFA added before enzyme) is 53.8 µM and 41.6 µM; the (GR)10 concentration left at 5 min (LC/MS; 50 µM start) is 52.6 µM and 50.5 µM; the (GR)10 concentration left at 10 min (LC/MS; 50 µM start) is 52.5 µM and 37.8 µM; the (GR)10 concentration left at 30 min (LC/MS; 50 µM start) was 43.6 µM and 21.1 µM. Moreover, in data set [1], the (GR)10 concentration left at 60 min (LC/MS; 50 µM start) was 35.3 µM and 12.2 µM; the (GR)10 left in CSF; Elastase-Immobilized-5 min reaction (LC/MS; 200 µM (GR)10 in human CSF) (normalized µM) is -0; the (GR)10 left in CSF; Elastase-Immobilized-605 min reaction [as printed; 60 min meant] (LC/MS; 200 µM (GR)10 in human CSF) (normalized µM) was -0; the (GR)10 left; Elastase-Immobilized-5 min reaction (LC/MS) (µM (normalized to GR concentration)) was -0. In addition, in data set [1], the (GR)10 left; Elastase-immobilized-60 min reaction (LC/MS) (µM (normalized to GR concentration)) is -0, the (GR)10 left; Elastase-in solution-5 min reaction (LC/MS) came out at 213 µM, the (GR)10 left; Elastase-in solution-60 min reaction (LC/MS) (µM (normalized to GR concentration)) worked out at 21.6 and the (GR)10 left; Elastase-resin wash from 5 min reaction (LC/MS) (µM (normalized to GR concentration)) is -0. For the same substance, in data set [1], the (GR)10 left; Elastase-resin wash from 60 min reaction (LC/MS) (µM (normalized to GR concentration)) is -0 and the “proteolytic activity on (GR)10 of immobilized enzyme after storage at 4° C. for over 2 months (LC/MS)” value is “agarose resin having immobilized elastase did not exhibit substantial (GR)10 proteolytic activity at either 5 minute or 60 minute treatment times”. The “digestion … immobilized enzyme (LC/MS)” value in data set [2] is given as “over 90% digestion of biotin-(PEG)4-(GR)10 after only 5 minutes of incubation time”.
Turning to “thrombin (activated by thermolysin, quenched by EDTA)”, in data set [1], the (GR)10 concentration left at 0 min (LC/MS; 50 µM start; TFA added before enzyme) is 37.7 µM and 52 µM; the (GR)10 concentration left at 5 min (LC/MS; 50 µM start) is 42.9 µM and 54.8 µM; the (GR)10 concentration left at 10 min (LC/MS; 50 µM start) was 46.7 µM and 59.4 µM; the (GR)10 concentration left at 30 min (LC/MS; 50 µM start) is 49.1 µM and 48.6 µM. Besides, in data set [1], the (GR)10 concentration left at 60 min (LC/MS; 50 µM start) is 56.2 µM and 55.2 µM; the (GR)10 concentration left at 120 min (LC/MS; 50 µM start) is 45.3 µM and 48.7 µM.
For trypsin, in data set [1], the (GR)10 concentration left at 0 min (LC/MS; 50 µM start; TFA added before enzyme) was 52.8 µM and 48.9 µM; the (GR)10 concentration left at 5 min (LC/MS; 50 µM start) was 2.2 µM and 2 µM; the “(GR)10 concentration left at 10 min (LC/MS; 50 µM start)” value was “BLQ”; the “(GR)10 concentration left at 30 min (LC/MS; 50 µM start)” value is recorded as “BLQ”. Besides, in data set [1], the “(GR)10 concentration left at 60 min (LC/MS; 50 µM start)” value is given as “BLQ”, the “(GR)10 concentration left at 120 min (LC/MS; 50 µM start)” value is given as “BLQ”, the (GR)10 left in CSF; Trypsin-Immobilized-5 min reaction (LC/MS; 200 µM (GR)10 in human CSF) came to 0 µM and the (GR)10 left in CSF; Trypsin-Immobilized-60 min reaction (LC/MS; 200 µM (GR)10 in human CSF) (normalized µM) is -0. In data set [1], this substance registered a (GR)10 left; Trypsin-Immobilized-5 min reaction (LC/MS) of 0 µM, a (GR)10 left; Trypsin-immobilized-60 min reaction (LC/MS) of 0 µM, a (GR)10 left; Trypsin-in solution-5 min reaction (LC/MS) of 0 µM and a (GR)10 left; Trypsin-in solution-60 min reaction (LC/MS) of 0 µM. Moreover, in data set [1], the (GR)10 left; Trypsin-resin wash from 5 min reaction (LC/MS) is 6.6 µM; the (GR)10 left; Trypsin-resin wash from 60 min reaction (LC/MS) is 0 µM; the “conversion of (GR)10 to shorter GR repeats (LC/MS)” value was “Almost complete conversion to (GR)1 and (GR)2 was observed in 5 to 10 min using either 2.5 or 10 µg/mL of trypsin for concentrations 50 µM of (GR)10”; the “proteolytic activity on (GR)10 of immobilized enzyme after storage at 4° C. for over 2 months (LC/MS)” value is “agarose resin having immobilized trypsin exhibited proteolytic activity after storage at 4 °C for over 2 months”. For the same substance, the “digestion … immobilized enzyme (LC/MS)” value in data set [2] was “over 90% digestion of biotin-(PEG)4-(GR)10 after only 5 minutes of incubation time”.
